{"source": "patent US20240034774A1", "binders": {"B1": {"name": "3.1.9-1 (antibody, human IgG1, kappa, V domains shown)", "VH": "QVQLLQSGAAVTKPGASVRVSCEASGYNIRDYFIHWWRQAPGQGLQWVGWINPKTGQPNNPRQFQGRVSLTRHASWDFDTFSFYMDLKALRSDDTAVYFCARQRSDYWDFDVWGSGTQVTVSS", "VL": "DIQMTQSPSSLSARVGDTATITCQANGYLNWYQQRRGKAPKLLIYDGSKLERGVPARFSGRRWGQEYNLTINNLQPEDVATYFCQVYEFFGPGTRLDLKR"}, "B2": {"name": "3.1.12-1 (antibody, human IgG1, kappa, V domains shown)", "VH": "B1 VH", "VL": "B1 VL with N68I"}, "B3": {"name": "1.1.117-1 (antibody, human IgG1, kappa, V domains shown)", "VH": "B1 VH", "VL": "B1 VL with R14S, A56S, N68I, V79I"}, "B4": {"name": "3.1.18-1 (antibody, human IgG1, kappa, V domains shown)", "VH": "B1 VH", "VL": "B1 VL with T18R, R61S, N68H, N72S, N73S"}, "B5": {"name": "2.3.18-1 (antibody, human IgG1, kappa, V domains shown)", "VH": "B1 VH with Q3H, L5S, L90V, V97I", "VL": "B1 VL with T18R, R61S, N68H, N72S, N73S"}, "B6": {"name": "3.1.15-1 (antibody, human IgG1, kappa, V domains shown)", "VH": "B1 VH", "VL": "B1 VL with N68T"}, "B7": {"name": "3.1.13-1 (antibody, human IgG1, kappa, V domains shown)", "VH": "B1 VH", "VL": "B1 VL with T18R, R61S, N68I, N72S, N73S"}, "B8": {"name": "2.3.15-1 (antibody, human IgG1, kappa, V domains shown)", "VH": "B1 VH with Q3H, L5S, L90V, V97I", "VL": "B1 VL with N68T"}, "B9": {"name": "2.3.7-1 (antibody, human IgG1, kappa, V domains shown)", "VH": "B1 VH with Q3H, L5S, L90V, V97I", "VL": "B1 VL with T18R, R61S, N68T, N72S, N73S"}, "B10": {"name": "2.2.7-1 (antibody, human IgG1, kappa, V domains shown)", "VH": "B1 VH with Q3H, L5S, N28K, Y32H, L90V, V97I", "VL": "B1 VL with T18R, R61S, N68T, N72S, N73S"}, "B11": {"name": "1.1.104-1 (antibody, human IgG1, kappa, V domains shown)", "VH": "B1 VH", "VL": "B1 VL with R14S, A56S, N68T, V79I"}, "B12": {"name": "1.1.102-1 (antibody, human IgG1, kappa, V domains shown)", "VH": "B1 VH", "VL": "B1 VL with R14S, T18R, A56S, R61S, N68H, N72S, N73S, V79I"}, "B13": {"name": "2.2.9-1 (antibody, human IgG1, kappa, V domains shown)", "VH": "B1 VH with Q3H, L5S, N28K, Y32H, L90V, V97I", "VL": "B1 VL"}, "B14": {"name": "2.2.17-1 (antibody, human IgG1, kappa, V domains shown)", "VH": "B1 VH with Q3H, L5S, N28K, Y32H, L90V, V97I", "VL": "B1 VL with N68H"}, "B15": {"name": "2.3.12-1 (antibody, human IgG1, kappa, V domains shown)", "VH": "B1 VH with Q3H, L5S, L90V, V97I", "VL": "B1 VL with N68I"}, "B16": {"name": "2.2.12-1 (antibody, human IgG1, kappa, V domains shown)", "VH": "B1 VH with Q3H, L5S, N28K, Y32H, L90V, V97I", "VL": "B1 VL with N68I"}, "B17": {"name": "1.1.118-1 (antibody, human IgG1, kappa, V domains shown)", "VH": "B1 VH", "VL": "B1 VL with R14S, T18R, A56S, R61S, N68I, N72S, N73S, V79I"}, "B18": {"name": "2.3.17-1 (antibody, human IgG1, kappa, V domains shown)", "VH": "B1 VH with Q3H, L5S, L90V, V97I", "VL": "B1 VL with N68H"}, "B19": {"name": "2.3.9-1 (antibody, human IgG1, kappa, V domains shown)", "VH": "B1 VH with Q3H, L5S, L90V, V97I", "VL": "B1 VL"}, "B20": {"name": "2.3.13-1 (antibody, human IgG1, kappa, V domains shown)", "VH": "B1 VH with Q3H, L5S, L90V, V97I", "VL": "B1 VL with T18R, R61S, N68I, N72S, N73S"}, "B21": {"name": "2.2.13-1 (antibody, human IgG1, kappa, V domains shown)", "VH": "B1 VH with Q3H, L5S, N28K, Y32H, L90V, V97I", "VL": "B1 VL with T18R, R61S, N68I, N72S, N73S"}, "B22": {"name": "3.1.7-1 (antibody, human IgG1, kappa, V domains shown)", "VH": "B1 VH", "VL": "B1 VL with T18R, R61S, N68T, N72S, N73S"}, "B23": {"name": "1.1.119-1 (antibody, human IgG1, kappa, V domains shown)", "VH": "B1 VH", "VL": "B1 VL with R14S, T18R, A56S, R61S, N68T, N72S, N73S, V79I"}, "B24": {"name": "2.2.15-1 (antibody, human IgG1, kappa, V domains shown)", "VH": "B1 VH with Q3H, L5S, N28K, Y32H, L90V, V97I", "VL": "B1 VL with N68T"}, "B25": {"name": "3.1.17-1 (antibody, human IgG1, kappa, V domains shown)", "VH": "B1 VH", "VL": "B1 VL with N68H"}, "B26": {"name": "1.1.78-1 (antibody, human IgG1, kappa, V domains shown)", "VH": "B1 VH", "VL": "B1 VL with R14S, A56S, N68H, V79I"}, "B27": {"name": "2.2.18-1 (antibody, human IgG1, kappa, V domains shown)", "VH": "B1 VH with Q3H, L5S, N28K, Y32H, L90V, V97I", "VL": "B1 VL with T18R, R61S, N68H, N72S, N73S"}, "B28": {"name": "Antibody 1.52.90-1 (antibody, V domains shown)", "VH": "B1 VH with W76F", "VL": "B1 VL with R14S, T18R, A56S, R61S, N72S, N73S, V79I"}}, "note": "Substitutions are numbered along the chain they refer to.", "data": [{"molecular_target": "HIV-1 envelope glycoprotein gp120 of virus 92US727 (HIV-1)", "experiment": "cell-based or functional assay", "units": {"neutralization IC50": "µg/mL"}, "values": [{"binder": "B1", "neutralization IC50": 3.54}, {"binder": "B2", "neutralization IC50": "> 41"}, {"binder": "B3", "neutralization IC50": "> 50"}, {"binder": "B4", "neutralization IC50": "> 9.8"}, {"binder": "B5", "neutralization IC50": "> 23"}, {"binder": "B6", "neutralization IC50": "> 33"}, {"binder": "B7", "neutralization IC50": "> 21"}, {"binder": "B8", "neutralization IC50": "> 50"}, {"binder": "B9", "neutralization IC50": "> 50"}, {"binder": "B10", "neutralization IC50": "> 50"}, {"binder": "B11", "neutralization IC50": "> 50"}, {"binder": "B12", "neutralization IC50": "> 50"}, {"binder": "B13", "neutralization IC50": 13.1}, {"binder": "B14", "neutralization IC50": "> 50"}, {"binder": "B15", "neutralization IC50": "> 50"}, {"binder": "B16", "neutralization IC50": "> 50"}, {"binder": "B17", "neutralization IC50": "> 50"}, {"binder": "B18", "neutralization IC50": "> 50"}, {"binder": "B19", "neutralization IC50": 11.1}, {"binder": "B20", "neutralization IC50": "> 38"}, {"binder": "B21", "neutralization IC50": "> 50"}, {"binder": "B22", "neutralization IC50": "> 50"}, {"binder": "B23", "neutralization IC50": "> 50"}, {"binder": "B24", "neutralization IC50": "> 50"}, {"binder": "B25", "neutralization IC50": "> 50"}, {"binder": "B26", "neutralization IC50": "> 50"}, {"binder": "B27", "neutralization IC50": "> 34"}]}, {"molecular_target": "HIV-1 envelope glycoprotein gp120 of virus VS001 (HIV-1)", "experiment": "cell-based or functional assay", "units": {"neutralization IC50": "µg/mL"}, "values": [{"binder": "B1", "neutralization IC50": 0.16}, {"binder": "B2", "neutralization IC50": 2.41}, {"binder": "B3", "neutralization IC50": 3.03}, {"binder": "B4", "neutralization IC50": 3.52}, {"binder": "B5", "neutralization IC50": 2.37}, {"binder": "B6", "neutralization IC50": 0.49}, {"binder": "B7", "neutralization IC50": 0.56}, {"binder": "B8", "neutralization IC50": 0.85}, {"binder": "B9", "neutralization IC50": 0.47}, {"binder": "B10", "neutralization IC50": 0.27}, {"binder": "B11", "neutralization IC50": 0.45}, {"binder": "B12", "neutralization IC50": 3}, {"binder": "B13", "neutralization IC50": 0.15}, {"binder": "B14", "neutralization IC50": 4.38}, {"binder": "B15", "neutralization IC50": 1.92}, {"binder": "B16", "neutralization IC50": 2.1}, {"binder": "B17", "neutralization IC50": 2.4}, {"binder": "B18", "neutralization IC50": 4.54}, {"binder": "B19", "neutralization IC50": 0.22}, {"binder": "B20", "neutralization IC50": 1.5}, {"binder": "B21", "neutralization IC50": 1.48}, {"binder": "B22", "neutralization IC50": 0.3}, {"binder": "B23", "neutralization IC50": 0.39}, {"binder": "B24", "neutralization IC50": 0.37}, {"binder": "B25", "neutralization IC50": 2.21}, {"binder": "B26", "neutralization IC50": 3.3}, {"binder": "B27", "neutralization IC50": 2.51}]}, {"molecular_target": "HIV-1 envelope glycoprotein gp120 of virus 7141 (HIV-1)", "experiment": "cell-based or functional assay", "units": {"neutralization IC50": "µg/mL"}, "values": [{"binder": "B1", "neutralization IC50": 4.35}, {"binder": "B2", "neutralization IC50": 24.5}, {"binder": "B3", "neutralization IC50": 16.9}, {"binder": "B4", "neutralization IC50": "> 9.8"}, {"binder": "B5", "neutralization IC50": "> 23"}, {"binder": "B6", "neutralization IC50": 9.1}, {"binder": "B7", "neutralization IC50": 13.2}, {"binder": "B8", "neutralization IC50": 5.93}, {"binder": "B9", "neutralization IC50": 5.08}, {"binder": "B10", "neutralization IC50": 1.58}, {"binder": "B11", "neutralization IC50": 5.13}, {"binder": "B12", "neutralization IC50": 22.7}, {"binder": "B13", "neutralization IC50": 1.75}, {"binder": "B14", "neutralization IC50": 6.28}, {"binder": "B15", "neutralization IC50": 23.8}, {"binder": "B16", "neutralization IC50": 7.08}, {"binder": "B17", "neutralization IC50": 20.2}, {"binder": "B18", "neutralization IC50": 31.3}, {"binder": "B19", "neutralization IC50": 2.56}, {"binder": "B20", "neutralization IC50": 15.5}, {"binder": "B21", "neutralization IC50": 3.8}, {"binder": "B22", "neutralization IC50": 5.65}, {"binder": "B23", "neutralization IC50": 6.92}, {"binder": "B24", "neutralization IC50": 1.99}, {"binder": "B25", "neutralization IC50": 25.5}, {"binder": "B26", "neutralization IC50": 29.5}, {"binder": "B27", "neutralization IC50": 5.04}]}, {"molecular_target": "152 patient-derived subtype B viruses obtained from pre-ART plasma", "experiment": "cell-based or functional assay", "units": {"Breadth (% viruses neutralized with an IC95 ≤ 50 µg/mL)": "%", "Geomean IC95": "µg/mL", "Median IC95": "µg/mL"}, "values": [{"binder": "B28", "Breadth (% viruses neutralized with an IC95 ≤ 50 µg/mL)": 78, "Geomean IC95": 4.56, "Median IC95": 4.42}]}]}
